The values below come from publication PMC10516636, “Structural basis for the selective methylation of 5-carboxymethoxyuridine in tRNA modification” (Nucleic Acids Research, 2023).

The target of one data set is T1, CmoM (Escherichia coli (ASKA library clone), UniProt P36566 1-261).
T1 sequence: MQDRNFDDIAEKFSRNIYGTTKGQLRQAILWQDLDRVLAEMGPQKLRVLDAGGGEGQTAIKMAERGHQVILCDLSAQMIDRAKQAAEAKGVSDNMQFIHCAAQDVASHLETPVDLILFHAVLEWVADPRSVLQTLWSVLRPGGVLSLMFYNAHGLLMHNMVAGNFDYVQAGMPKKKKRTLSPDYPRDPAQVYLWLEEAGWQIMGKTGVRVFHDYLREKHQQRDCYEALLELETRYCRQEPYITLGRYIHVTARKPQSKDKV
The data set is described as follows: X-ray crystallography (2.22 A); sinefungin (3 mM); Mg2+ (0.04 M magnesium acetate in reservoir); Crystallization: CmoM:tRNA 1:4 molar ratio, 3 mM sinefungin; reservoir 0.04 M Mg acetate, 0.05 M Na cacodylate pH 6.0, 30% MPD, 25 C; protein in 25 mM HEPES pH. Particulars: protein: recombinant; tags: His tag (ASKA pCA24N vector; HisTrap purified); tRNA fold with 16-nt variable arm.

Data set [1] deals with the molecule itself. As to the kind of experiment: SEC; Superdex 75 column, 100 ug wild-type CmoM, 25 mM HEPES pH 7.5, 150 mM NaCl, 0.5 ml/min; ovalbumin (44 kDa) and MnmC (76 kDa) run for comparison.

B1: tRNASer1(cmo5UGA) (structured_RNA)
RNA: GGAAGUGUGGCCGAGCGGUUGAAGGCACCGGUCUUGAAAACCGGCGACCCGAAAGGGUUCCAGAGUUCGAAUCUCUGCGCUUCCGCCA
modifications: cmo5U34; i6A37 (partly ms2i6A37); other native tRNA modifications
As to B1, the binding result in the data set with CmoM is recorded as “binds”.

B2: Escherichia coli CmoM (wild type, recombinant) (enzyme, E. coli)
chain: QDRNFDDIAEKFSRNIYGTTKGQLRQAILWQDLDRVLAEMGPQKLRVLDAGGGEGQTAIKMAERGHQVILCDLSAQMIDRAKQAAEAKGVSDNMQFIHCAAQDVASHLETPVDLILFHAVLEWVADPRSVLQTLWSVLRPGGVLSLMFYNAHGLLMHNMVAGNFDYVQAGMPKKKKRTLSPDYPRDPAQVYLWLEEAGWQIMGKTGVRVFHDYLREKHQQRDCYEALLELETRYCRQEPYITLGRYIHVTARKPQSKDKV
notes: CmoM, SAM-dependent tRNA cmo5U34 methyltransferase of E. coli; cmoM gene on pCA24N from the ASKA library; calculated monomer molecular weight 31.7 kDa; 257 protein residues modelled in the crystal structure; also called E. coli CmoM; source: E. coli BL21 (DE3), purified (HisTrap HP Ni2+ column); not shown: His tag (inferred from the HisTrap Ni2+ purification)
For orientation: stoichiometry N means a count of units in the complex or per binding partner. Take B2: the “stoichiometry N” value in data set [1] came out at 2.
